According to patent publication US20040009905A1 (B M R A CORPORATION B V, published 2004):

Biological target: T1, NPY Y1 receptor (human, UniProt P25929 1-384)
T1 construct: whole, on cells; SK-N-MC cells are said to express the NPY Y1 receptor exclusively; also called SK-N-MC cells
T1 sequence (looked up): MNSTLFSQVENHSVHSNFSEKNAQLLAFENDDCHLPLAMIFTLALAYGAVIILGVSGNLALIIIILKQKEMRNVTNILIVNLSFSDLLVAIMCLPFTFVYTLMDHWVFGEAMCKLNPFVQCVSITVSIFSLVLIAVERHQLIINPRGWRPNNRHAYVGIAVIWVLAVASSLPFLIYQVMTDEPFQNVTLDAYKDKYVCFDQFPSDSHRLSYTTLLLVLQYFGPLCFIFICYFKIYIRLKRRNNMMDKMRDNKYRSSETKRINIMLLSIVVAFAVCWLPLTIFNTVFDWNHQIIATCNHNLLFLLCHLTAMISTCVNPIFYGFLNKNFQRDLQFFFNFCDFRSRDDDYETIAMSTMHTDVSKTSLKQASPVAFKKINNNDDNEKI
Assay: 125I-NPY displacement on SK-N-MC cells
Experimental: Various peptide dilutions were incubated with SK-N-MC cells that exclusively express Y1 receptors. Cells were then washed three times with buffer and lysed in 1% Nonidet P40 (Fluka, Neu-Ulm, Germany), 8M urea, 3M acetic acid. […] At the end of the incubation period, cells were washed and lysed. Bound radioactivity was determined by gamma counting. […] Each point represents the mean ± of at least 4 experiments.

B1: Neuropeptide Y (NPY) (peptide)
peptide: not shown
modifications: C-terminal tyrosine amidated
notes: also called native NPY; Human NPY 1-36
B1: binds.
